Data published in PMC9482650, “Quantitative fragmentomics allow affinity mapping of interactomes” (Nature Communications, 2022).

What was measured:
Test in all cases: holdup assay
Set-up in all cases: key: below the threshold = too weak to quantify, mostly under pKd 3.1 to 4
LNX1_2, Q8TBB1 = biological target: LNX1_2, Q8TBB1
PDZD7_3, Q9H5P4 = biological target: T1, PDZD7_3, Q9H5P4
T1 sequence (Q9H5P4 857-944, limits assumed, looked up): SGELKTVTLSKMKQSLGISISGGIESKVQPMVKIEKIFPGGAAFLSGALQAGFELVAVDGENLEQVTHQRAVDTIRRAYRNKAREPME

TJP1_2, Q07157 = biological target: TJP1_2, Q07157
MPDZ_5, O75970 = biological target: T2, MPDZ_5, O75970
T2 sequence (O75970 695-796, limits assumed, looked up): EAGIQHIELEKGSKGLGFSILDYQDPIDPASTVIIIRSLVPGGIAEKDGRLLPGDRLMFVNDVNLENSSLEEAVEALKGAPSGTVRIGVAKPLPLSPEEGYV

GIPC2, Q8TF65 = biological target: GIPC2, Q8TF65
Inadl_8, Q8NI35 = biological target: Inadl_8, Q8NI35
SNTA1, Q13424 = biological target: T3, SNTA1, Q13424
T3 sequence (Q13424 82-180, limits assumed, looked up): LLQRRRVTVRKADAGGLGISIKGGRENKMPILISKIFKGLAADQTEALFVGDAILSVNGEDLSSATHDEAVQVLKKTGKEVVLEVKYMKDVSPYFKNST

SNTB1, Q13884 = biological target: T4, SNTB1, Q13884
T4 sequence (Q13884 107-205, limits assumed, looked up): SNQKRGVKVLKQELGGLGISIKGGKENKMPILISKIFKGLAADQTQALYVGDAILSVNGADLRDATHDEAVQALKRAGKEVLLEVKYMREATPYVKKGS

GRIP2_5, Q9C0E4 = biological target: GRIP2_5, Q9C0E4
TX1BP3, O14907 = biological target: T5, TX1BP3, O14907
T5 sequence (O14907 10-122, limits assumed, looked up): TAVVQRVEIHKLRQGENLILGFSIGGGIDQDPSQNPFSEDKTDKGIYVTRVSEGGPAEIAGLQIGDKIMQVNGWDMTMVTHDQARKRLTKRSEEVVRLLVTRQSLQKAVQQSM

GRIP1_3, Q9Y3R0 = biological target: T6, GRIP1_3, Q9Y3R0
T6 sequence (Q9Y3R0 247-346, limits assumed, looked up): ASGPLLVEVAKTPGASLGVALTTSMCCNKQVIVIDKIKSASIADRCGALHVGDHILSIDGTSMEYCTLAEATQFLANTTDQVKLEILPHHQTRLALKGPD

PARD3_3, Q8TEW0 = biological target: PARD3_3, Q8TEW0
NHERF3_1, Q5T2W1 = biological target: T7, NHERF3_1, Q5T2W1
T7 sequence (Q5T2W1 4-100, limits assumed, looked up): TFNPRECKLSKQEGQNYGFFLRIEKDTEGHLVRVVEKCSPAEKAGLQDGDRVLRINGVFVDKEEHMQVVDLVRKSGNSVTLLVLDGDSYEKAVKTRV

SCRIB_2, Q14160 = biological target: SCRIB_2, Q14160
SNTG1, Q9NSN8 = biological target: T8, SNTG1, Q9NSN8
T8 sequence (Q9NSN8 52-150, limits assumed, looked up): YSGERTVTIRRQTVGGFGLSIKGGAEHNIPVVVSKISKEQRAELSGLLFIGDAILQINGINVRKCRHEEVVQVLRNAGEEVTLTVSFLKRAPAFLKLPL

DLG1_2, Q12959 = biological target: DLG1_2, Q12959
DLG2_3, Q15700 = biological target: DLG2_3, Q15700
MPP6, Q9NZW5 = biological target: T9, MPP6, Q9NZW5
T9 sequence (Q9NZW5 125-219, limits assumed, looked up): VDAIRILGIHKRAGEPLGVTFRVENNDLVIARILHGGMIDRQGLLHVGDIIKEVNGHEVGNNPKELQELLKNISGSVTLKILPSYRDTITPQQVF

FRMPD2_2, Q68DX3 = biological target: FRMPD2_2, Q68DX3
DLG3_2, Q92796 = biological target: T10, DLG3_2, Q92796
T10 sequence (Q92796 221-321, limits assumed, looked up): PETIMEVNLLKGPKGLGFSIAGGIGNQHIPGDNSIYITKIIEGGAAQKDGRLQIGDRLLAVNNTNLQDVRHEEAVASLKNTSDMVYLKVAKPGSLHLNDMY

APBA2_2, Q99767 = biological target: T11, APBA2_2, Q99767
T11 sequence (Q99767 654-744, limits assumed, looked up): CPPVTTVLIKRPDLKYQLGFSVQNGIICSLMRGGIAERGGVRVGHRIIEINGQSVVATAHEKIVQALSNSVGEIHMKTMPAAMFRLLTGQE

DLG2_2, Q15700 = biological target: DLG2_2, Q15700
NHERF3_4, Q5T2W1 = biological target: T12, NHERF3_4, Q5T2W1
T12 sequence (Q5T2W1 373-468, limits assumed, looked up): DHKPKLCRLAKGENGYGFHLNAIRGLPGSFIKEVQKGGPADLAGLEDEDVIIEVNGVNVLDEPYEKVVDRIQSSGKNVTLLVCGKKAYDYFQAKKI

GRIP2_7, Q9C0E4 = biological target: GRIP2_7, Q9C0E4
LIN7C, Q9NUP9 = biological target: T13, LIN7C, Q9NUP9
T13 sequence (Q9NUP9 88-185, limits assumed, looked up): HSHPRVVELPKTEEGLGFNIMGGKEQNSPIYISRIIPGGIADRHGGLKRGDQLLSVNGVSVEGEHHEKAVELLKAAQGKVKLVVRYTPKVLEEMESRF

[1] = plain residues with an end cap or a label only (N-terminal biotin on a linker: ahx)
[2] = plain residues with an end cap or a label only (N-terminal biotin on a linker: ttds)

Sequence of GRIP2_7, Q9C0E4 (Q9C0E4 934-1023): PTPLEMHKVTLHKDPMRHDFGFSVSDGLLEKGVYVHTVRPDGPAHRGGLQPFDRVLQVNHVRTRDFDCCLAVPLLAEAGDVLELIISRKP
Sequence of DLG1_2, Q12959 (Q12959 314-412): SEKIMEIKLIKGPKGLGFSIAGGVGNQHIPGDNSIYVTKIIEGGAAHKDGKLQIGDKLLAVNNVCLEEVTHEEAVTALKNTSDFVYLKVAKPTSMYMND
Sequence of FRMPD2_2, Q68DX3 (Q68DX3 944-1038): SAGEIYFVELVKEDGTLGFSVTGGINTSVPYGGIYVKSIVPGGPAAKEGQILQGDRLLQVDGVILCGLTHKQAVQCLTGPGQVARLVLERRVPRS
Sequence of SCRIB_2, Q14160 (Q14160 857-960): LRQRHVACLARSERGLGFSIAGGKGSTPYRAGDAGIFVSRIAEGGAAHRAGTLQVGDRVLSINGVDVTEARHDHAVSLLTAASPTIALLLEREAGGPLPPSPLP
Sequence of GIPC2, Q8TF65 (Q8TF65 112-203): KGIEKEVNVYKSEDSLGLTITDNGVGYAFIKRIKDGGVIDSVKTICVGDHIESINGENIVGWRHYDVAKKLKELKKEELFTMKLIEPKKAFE
Sequence of Inadl_8, Q8NI35 (Q8NI35 1425-1530): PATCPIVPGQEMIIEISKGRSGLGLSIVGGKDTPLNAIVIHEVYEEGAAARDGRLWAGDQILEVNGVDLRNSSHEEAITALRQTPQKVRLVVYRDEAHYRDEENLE
Sequence of LNX1_2, Q8TBB1 (Q8TBB1 371-470): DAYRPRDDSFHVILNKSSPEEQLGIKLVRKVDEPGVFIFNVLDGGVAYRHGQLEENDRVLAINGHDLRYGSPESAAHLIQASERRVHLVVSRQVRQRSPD
Sequence of GRIP2_5, Q9C0E4 (Q9C0E4 544-642): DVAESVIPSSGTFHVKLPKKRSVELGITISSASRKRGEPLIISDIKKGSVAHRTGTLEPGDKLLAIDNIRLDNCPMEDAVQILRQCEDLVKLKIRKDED
Sequence of TJP1_2, Q07157 (Q07157 181-274): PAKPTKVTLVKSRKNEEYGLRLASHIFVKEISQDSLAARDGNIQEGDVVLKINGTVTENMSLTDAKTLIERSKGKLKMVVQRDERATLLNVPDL
Sequence of PARD3_3, Q8TEW0 (Q8TEW0 582-685): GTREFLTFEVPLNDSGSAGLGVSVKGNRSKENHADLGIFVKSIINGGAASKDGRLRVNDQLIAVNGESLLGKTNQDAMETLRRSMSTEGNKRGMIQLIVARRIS

For AKPQPVDSWV [ARVCF, O00192], the pKd (LNX1_2, Q8TBB1; [1]) was “below the threshold”, the pKd (PDZD7_3, Q9H5P4; [1]) was 3.53 and the pKd (TJP1_2, Q07157; [1]) was “below the threshold”. The pKd (MPDZ_5, O75970; [1]) was “below the threshold”, the pKd (GIPC2, Q8TF65; [1]) was “below the threshold” and the pKd (Inadl_8, Q8NI35; [1]) was 3.87. The pKd (SNTA1, Q13424; [1]) was “below the threshold”, the pKd (SNTB1, Q13884; [1]) was 3.5 and the pKd (GRIP2_5, Q9C0E4; [1]) was “below the threshold”. The pKd (TX1BP3, O14907; [1]) was 4.92, the pKd (GRIP1_3, Q9Y3R0; [1]) was “below the threshold” and the pKd (PARD3_3, Q8TEW0; [1]) was 4.05. The pKd (NHERF3_1, Q5T2W1; [1]) was “below the threshold”, the pKd (SCRIB_2, Q14160; [1]) was 5.16 and the pKd (SNTG1, Q9NSN8; [1]) was 4.64. The pKd (DLG1_2, Q12959; [1]) was 4.75, the pKd (DLG2_3, Q15700; [1]) was 4.06 and the pKd (MPP6, Q9NZW5; [1]) was “below the threshold”. For the same binder, the pKd (FRMPD2_2, Q68DX3; [1]) was 4.25, the pKd (DLG3_2, Q92796; [1]) was 4.49 and the pKd (APBA2_2, Q99767; [1]) was “below the threshold”. The pKd (DLG2_2, Q15700; [1]) was “below the threshold”, the pKd (NHERF3_4, Q5T2W1; [1]) was “below the threshold” and the pKd (GRIP2_7, Q9C0E4; [1]) was 4.13. The pKd (LIN7C, Q9NUP9; [1]) was “below the threshold”.

In the case of NPDALPETLV [ARHGAP6, O43182], the pKd (LNX1_2, Q8TBB1; [2]) is reported as 3.73, the pKd (PDZD7_3, Q9H5P4; [2]) is reported as 5.61 and the pKd (TJP1_2, Q07157; [2]) is reported as “below the threshold”. The pKd (MPDZ_5, O75970; [2]) was “below the threshold”, the pKd (GIPC2, Q8TF65; [2]) was 3.49 and the pKd (Inadl_8, Q8NI35; [2]) was “below the threshold”. The pKd (SNTA1, Q13424; [2]) was 5.05, the pKd (SNTB1, Q13884; [2]) was 4.86 and the pKd (GRIP2_5, Q9C0E4; [2]) was “below the threshold”. The pKd (TX1BP3, O14907; [2]) was “below the threshold”, the pKd (GRIP1_3, Q9Y3R0; [2]) was “below the threshold” and the pKd (PARD3_3, Q8TEW0; [2]) was 3.85. For the same binder, the pKd (NHERF3_1, Q5T2W1; [2]) was 4.55, the pKd (SCRIB_2, Q14160; [2]) was 3.8 and the pKd (SNTG1, Q9NSN8; [2]) was 5.33. The pKd (DLG1_2, Q12959; [2]) was 4.49, the pKd (DLG2_3, Q15700; [2]) was 4.01 and the pKd (MPP6, Q9NZW5; [2]) was “below the threshold”. The pKd (FRMPD2_2, Q68DX3; [2]) was 4.99, the pKd (DLG3_2, Q92796; [2]) was 4.18 and the pKd (APBA2_2, Q99767; [2]) was “below the threshold”. For the same binder, the pKd (DLG2_2, Q15700; [2]) was 4.23, the pKd (NHERF3_4, Q5T2W1; [2]) was “below the threshold” and the pKd (GRIP2_7, Q9C0E4; [2]) was “below the threshold”. The pKd (LIN7C, Q9NUP9; [2]) was 4.31.

For QRPYRRESEI [KCNJ12, Q14500], the pKd (LNX1_2, Q8TBB1; [2]) was “below the threshold”, the pKd (PDZD7_3, Q9H5P4; [2]) was 4.57 and the pKd (TJP1_2, Q07157; [2]) was “below the threshold”. The pKd (MPDZ_5, O75970; [2]) was “below the threshold”, the pKd (GIPC2, Q8TF65; [2]) was “below the threshold” and the pKd (Inadl_8, Q8NI35; [2]) was “below the threshold”. For the same binder, the pKd (SNTA1, Q13424; [2]) was 3.97, the pKd (SNTB1, Q13884; [2]) was 3.86 and the pKd (GRIP2_5, Q9C0E4; [2]) was “below the threshold”. For the same binder, the pKd (TX1BP3, O14907; [2]) was 4.64, the pKd (GRIP1_3, Q9Y3R0; [2]) was 3.51 and the pKd (PARD3_3, Q8TEW0; [2]) was “below the threshold”. For the same binder, the pKd (NHERF3_1, Q5T2W1; [2]) was “below the threshold”, the pKd (SCRIB_2, Q14160; [2]) was 3.56 and the pKd (SNTG1, Q9NSN8; [2]) was 3.82. For the same binder, the pKd (DLG1_2, Q12959; [2]) was 4.61, the pKd (DLG2_3, Q15700; [2]) was 4.65 and the pKd (MPP6, Q9NZW5; [2]) was “below the threshold”. The pKd (FRMPD2_2, Q68DX3; [2]) was “below the threshold”, the pKd (DLG3_2, Q92796; [2]) was 4.28 and the pKd (APBA2_2, Q99767; [2]) was “below the threshold”. The pKd (DLG2_2, Q15700; [2]) was 3.96, the pKd (NHERF3_4, Q5T2W1; [2]) was “below the threshold” and the pKd (GRIP2_7, Q9C0E4; [2]) was “below the threshold”. The pKd (LIN7C, Q9NUP9; [2]) was “below the threshold”.

For GRLLGLETNV [ARHGEF26, Q96DR7], the pKd (LNX1_2, Q8TBB1; [2]) was “below the threshold”, the pKd (PDZD7_3, Q9H5P4; [2]) was 4.11 and the pKd (TJP1_2, Q07157; [2]) was “below the threshold”. For the same binder, the pKd (MPDZ_5, O75970; [2]) was “below the threshold”, the pKd (GIPC2, Q8TF65; [2]) was “below the threshold” and the pKd (Inadl_8, Q8NI35; [2]) was “below the threshold”. The pKd (SNTA1, Q13424; [2]) was 4.7, the pKd (SNTB1, Q13884; [2]) was 4.79 and the pKd (GRIP2_5, Q9C0E4; [2]) was “below the threshold”. The pKd (TX1BP3, O14907; [2]) was 4.49, the pKd (GRIP1_3, Q9Y3R0; [2]) was “below the threshold” and the pKd (PARD3_3, Q8TEW0; [2]) was “below the threshold”. The pKd (NHERF3_1, Q5T2W1; [2]) was “below the threshold”, the pKd (SCRIB_2, Q14160; [2]) was 4.29 and the pKd (SNTG1, Q9NSN8; [2]) was 4.95. The pKd (DLG1_2, Q12959; [2]) was 5.18, the pKd (DLG2_3, Q15700; [2]) was 4.54 and the pKd (MPP6, Q9NZW5; [2]) was “below the threshold”. For the same binder, the pKd (FRMPD2_2, Q68DX3; [2]) was 4.22, the pKd (DLG3_2, Q92796; [2]) was 4.97 and the pKd (APBA2_2, Q99767; [2]) was “below the threshold”. The pKd (DLG2_2, Q15700; [2]) was 4.88, the pKd (NHERF3_4, Q5T2W1; [2]) was “below the threshold” and the pKd (GRIP2_7, Q9C0E4; [2]) was “below the threshold”. The pKd (LIN7C, Q9NUP9; [2]) was 3.72.
